The text below walks through data of the DeepSol protein solubility set.

The data set in a line: soluble on expression in E. coli; label from the status in PepcDB or PDB records.
Take “MSALEWYAHKSLGDGIFWIQERFYESGNRANIWLVRGSEQDVVIDTGLGLRSLPEYLYSSGLLQDREAKEDAARRPLLAVATHVHFDHSGGLYQFDRVAVHHAEAEALARGDNFETVTWLSDSEVVRAPSPGWRARQFRVQAVQPTLILQDGDVINLGDRQLTVMHMPGHSRGSICLHDKDRKILFSGDVVYDGSLIDWLPYSRISDYVGTCERLIELVDRGLVEKVLPGHFNTFGAERLFRLASNYISKAGICHKVSTFAMRSLASLALRVTNSRTSP”: the “soluble on expression in E. coli” value is reported as “not soluble”.
To “MGSDKIHHHHHHSDDNKTTGATYDPNQPVTVESFMPVEGKLREKVIVKGSNFGTDKSKVKVYFVDEAAERLSTVIGIDNNTLYCLAPRQLPGGNRIKVIVDGKEVTTDGTFKYEQAQNVSTISGSASKDGNDDGDLASAKFKYMWGIAAVGNNTVLAYQRDDPRVRLISVDDNKVTTVHPGFKGGKPAVTKDKQRVYSIGWEGTHTVYVYMKASGWAPTRIGQLGSTFSGKIGAVALDETEEWLYFVDSNKNFGRFNVKTQEVTLIKQLELSGSLGTNPGPYLIYYFVDSNFYMSDQNLSSVYKITPDGECEWFCGSATQKTVQDGLREEALFAQPNGMTVDEDGNFYIVDGFKGYCLRKLDILDGYVSTVAGQVDVASQIDGTPLEATFNYPYDICYDGEGGYWIAEAWGKAIRKYAVE” belongs “not soluble”; to “MSLLLGVENGRITQLGDAELLAGELDISVKIHDYTGKIICPGFVDTHVHYPQLAIIGSYGESLLHWLENYAFDEEKKFNDADHSLKTANHFLDELLRCGTTTAQVFGTVHPESVEGFFTAAEHRDLRMICGKVLMDRNGPLGLLDTPETSYVDSKNLIERWHGRSRLRYAVSPRFAPTSTPDQLATARQLLREYPGTHLQTHLSEDQEEIKWVKSLFPHCKNYLDIYKRAGLLGKRSTFAHCLHLTEADWEMLEHEGCSVAFCPSSNLFLGSGLFDLPRPQFANVKVGIGTDVGAGTSLSMLQTIADAYKTQRLAGNDLSPLSGLYMATLGGAKSLDCDADIGNFKIGKEADFTVLDPESTPLMSYRMQNCKSLEERLAVIVLLGDDRAILATYANGRCVHDRDIDEESEGHHHHHH”, “soluble”.
Consider “MADQHPTAQRPIDAHGIIGDMRSAALVDDQGSIDFFCWPEFDSPSIFCSLLDSPAAGIFELAPVLADARRQQIYLPDSNVLQTRWLGTEAVVEVTDLLTIDDDPEQLPLLIRRVRVVSGQATLRLHCAPRLDYLEHHHHHH”, for which the “soluble on expression in E. coli” value was “not soluble”.
“NTMRSFILRARSAPTDSQRLLDEIGGKCHTEILAHCMMNSLFTAQSHREDVVIHLVLESTRDYSRTITVEANEISDVGGFHEAALIALLVKALDASVGMGKEQTRVVQPGLTVRTISFEALLGELAEHHSLYMMDKKGDSIRDIKIGPNPCFILTDHIPMPKKSGNSMKRLGVEKISLGPKMLFASQCVTLIHNEIDHQEA”: the “soluble on expression in E. coli” value is given as “not soluble”.
As to “MTVDLTNVFQQIDGDYDNLKELLREAVAIQSVSGDPSKRDETIRMVHWMKEKLETIGTICELADLGTQELEGKTVKLPPVLLGTLGSDKNKKTLLVYGHLDVQPAAKSDGWDTEPFELVEKDGKLFGRGSSDDKGPVLCWFHAIRAAQKNGIDLPVNIKFCLEGMEESGSVGLPELLEREKDRFLAGVDFVCISDSYWLGTKKPCLTYGLRGICSFFVEVTGIKQDLHSGVFGGVIHEPLQDLMWVMSQLTTVDNRIKIPGLYEQVAPLSAAEEKTYDDIEFDVAEFRDSVGASKLPTEDKKTLLLRRWREPSLAFHGIEGAFYGPGEKTVIPSKVIGKFSIRIVPDMDPEQVNRLTVEYLNKVWAERGSPNVFKPRPGHSAKPWVVDVNDSNFLAGARAMKRVHGVEPDRIREGCSIPITLTFQELTGKSVLLLPIGAADDMAHSQNEKNNIWNYVEGVKTLLAYIMELGSA”, the “soluble on expression in E. coli” value is listed as “not soluble”.
Under “MTTKYAALLRGINVGGSRKVPMADLRALLTSLGHDAVRTHLQSGQAVFAAAHGDEDSLAAELAEAIGERFGFPVDVIVRDHAYLRSVVEACPFPAAELEARQLHVTYFSAPVEADRFAAIDAPAFRPEEFRLGDRALYLYAPDGLGRSKLAEALARPRVNKGLVATSRNWNTVTKLVELTGP” stands “not soluble”.
Turning to “MSLETSDAPHSSLVGNSVFVTHPDLKRLFQMAVSKSVREILIPAVEKAANMAVQSTVNIVLKDFATEVDEQKLKTAAINMVQYLAQNVAHSISVPLLKDTIRNTTQSLTPNLINMTNSPIAELNTAIDDNIAIAVSPIEKAAVERAIQEVNEKLVQAVAVRRYHLERRSDQPFVAQNINRFSLNLPDPLGLKPTGVTREQFSLYEQFPASMPSDSSRSPLETILAQEGHHHHHH”, the “soluble on expression in E. coli” value is “soluble”.
Under “MAAHSFPLLRLPPKNLASVLRQVEIIEQIGLSLLSNKTKEYIRKFCDFKGFELSVWLHPYAVELELFKNGEGATHCSFRDGRACEHNEYPDGFTFDASQFFDMKSCLKHLLYILNPSKIAFLFYIQSNEVSDESQFQMTVDCLKGVKILKFSAKCIPQMNHIVRLVNAFPQTNRLSLVKNSNQPFQLSTLRQILHRKIQKLNLVIDITLNELLLNNSATSDFYSERLRGKDINLFLKHWAAGLKPELEYISFQISAVNFVESTILAGIPH” stands “not soluble”; under “MERINFIFGIHNHQPLGNFGWVFEEAYNRSYRPFMEILEEFPEMKVNVHFSGPLLEWIEENKPDYLDLLRSLIKRGQLEIVVAGFYEPVLAAIPKEDRLVQIEMLKDYARKLGYDAKGVWLTERVWQPELVKSLREAGIEYVVVDDYHFMSAGLSKEELFWPYYTEDGGEVITVFPIDEKLRYLIPFRPVKKTIEYLESLTSDDPSKVAVFHDDGEKFGVWPGTYEWVYEKGWLREFFDAITSNEKINLMTYSEYLSKFTPRGLVYLPIASYFEMSEWSLPAKQAKLFVEFVEQLKEEGKFEKYRVFVRGGIWKNFFFKYPESNFMHKRMLMVSKAVRDNPEARKYILKAQCNDAYWHGVFGGIYLPHLRRTVWENIIKAQRYLKPENKILDVDFDGRAEIMVENDGFIATIKPHYGGSIFELSSKRKAVNYNDVLPRRWEHYHEVPEATKPEKESEEGIASIHELGKQIPEEIRRELAYDWQLRAILQDHFIKPEETLDNYRLVKYHELGDFVNQPYEYEMIENGVKLWREGGVYAEEKIPARVEKKIELTEDGFIAKYRVLLEKPYKALFGVEINLAVHSVMEKPEEFEAKEFEVNDPYGIGKVRIELDKAAKVWKFPIKTLSQSEAGWDFIQQGVSYTMLFPIEKELEFTVRFREL”, “soluble”.
For the sequence “SIRFVIDREECFSHKAEYEGDTLHVSFVVIKSDSQWHFNEDGVDLVIHGPTGEQIHDFREQISAKHDFVVQKKGVYRFCFTNKSPYHETIDFDVQLGHFAYYDQHAKDEHFTPLMEQISKLEEALYNIQFEQHWLEAQTDRQAIVNENMSKRAVHKALFESFALIGASFLQVYLLRRLFERKLGMSRV”, the “soluble on expression in E. coli” value is given as “soluble”.
For the sequence “MVMSIEASCHCGETVFEVTEAPSSVTRCTCSLCAKRGSLWAYYKPAQFRLLSPPENVTTYLWGSRTVKHHFCASCGCGTYSESPDWSTGKPDFDNPKVAVNARLFDDFDLDAVPVNMIDGKNLWLEHHHHHH”, the “soluble on expression in E. coli” value is “soluble”.
To “MNKKSSSMVNMPAPREPINQKIDTNNALVLNHNAIYEQRLAEITQSNTCDKAIVTVNPYGTAPLSLYLGVWMDEAAALEINVVDSEATTEEVRYQYDVHPGANLIPVCGMVSAVNNQITLRLASQIVGQYTVMTDALPPTDSANVSLGFPIISVSCPAQQASLMEEGLYFSTYFDRYNLAFDHNGIVRWYVSQEIPSYNFVRMDNGHFLATSQGINHCLNMYEFDIMGRVYTVYLLDNEFHHSILPIENNLAIAPSEYSNGRPDGYSTGKDGVSIINLSTGLEVAYYDMLYVMDYSRSPRPSGSAPGQDVSMDDWLHINQSYINEPNNLLICSGRHQSAIFGVNVDSGELRFIMANHEDWSDEFKQYLLTPVDDDGVPLYDLTSPGGIDAADKNFWTWGQHNIVEIPNDEPGILEFMVFDNGNYRSREDAKSLLPLDNFSRVVQFKINLNTMTVTRPYEYGKTEVGNRGYSSFVSAKHLLTNGHLVIHFGATTVDEFEHTITAQPGSSDLVDPDEGQQALGRLVLQEINKETKEVLFEAMVTSGYFKNEETNGTNYRYDISAFRVYKMPLFA” belongs “not soluble”; to “MAILAARIAVSNLHKETKKVFSDVMEDLYNYINPHNGKHSPMVAKSTLDIVLANKDRLNSAIIYDRDFSYNYFGFKTLERSYLLKINGKVAERPQHMLMRVSVGIHKEDIDAAIETYNLLSERWFTHASPTLFNAGTNRPQLSSCFLLSMKDDSIEGIYDTLKQCALISKSAGGIGVAVSCIRATGSYIAGTNGNSNGLVPMLRVYNNTARYVDQGGNKRPGAFAIYLEPWHLDIFEFLDLKKNTGKEEQRARDLFFALWIPDLFMKRVETNQDWSLMCPNECPGLDEVWGEEFEKLYASYEKQGRVRKVVKAQQLWYAIIESQTETGTPYMLYKDSCNRKSNQQNLGTIKCSNLCTEIVEYTSKDEVAVCNLASLALNMYVTSEHTYDFKKLAEVTKVVVRNLNKIIDINYYPVPEACLSNKRHRPIGIGVQGLADAFILMRYPFESAEAQLLNKQIFETIYYGALEASCDLAKEQGPYETYEGSPVSKGILQYDMWNVTPTDLWDWKVLKEKIAKYGIRNSLLIAPMPTASTAQILGNNESIEPYTSNIYTRRVLSGEFQIVNPHLLKDLTERGLWHEEMKNQIIACNGSIQSIPEIPDDLKQLYKTVWEISQKTVLKMAAERGAFIDQSQSLNIHIAEPNYGKLTSMHFYGWKQGLKTGMYYLRTRAHHHHHH”, “soluble”; to “VDVRAIMTPPAHQDGGKHDVDARGPCGLTPLMIAAVRGGGLDTGEDIENNEDSTAQVISDLLAQGAELNATMDKTGETSLHLAARFARADAAKRLLDAGADANCQDNTGRTPLHAAVAADAMGVFQILLRNRATNLNARMHDGTTPLILAARLAIEGMVEDLITADADINAADNSGKTALHWAAAVNNTEAVNILLMHHANRDAQDDKDETPLFLAAREGSYEACKALLDNFANREITDHMDRLPRDVASERLHHDIVRLLDEHVPRSPQMLSMTPQAMIGSPPPGQQQPQLITQPTVISAGNGGNNGNGNASGKQSNQT”, “soluble”.
Regarding “MGSDKIHHHHHHMTTKLDQLTSWLKERKITEVECLISDLTGIARGKISPTNKFIAEKGMRLPESVLLQTVTGDYVEDDIYYDLLDPADIDMVCRPDENAVFLVPWAIEPTAMVIHDTFDKLGNPIELSPRNILKRVLKMYADKGWRPIVAPEMEFYLTKRSDDPDYPLQAPVGRSGRQETGRQSFSIDAANEFDPLFEDMYDWCEAQGLDLDTLIHEEGTAQMEINFRHGDALDLADQILVFKRTMREAALKHNVAATFMAKPMTGEPGSAMHLHQSIVDVKTGKNIFSNADGTMSELFLHHIGGLQKFIPEVLPLFAPNVNSFRRFLPDTSAPVNVEWGEENRTVGLRVPDSSPENRRVENRLAGADANPYLALAASLLCGYIGMVEGIKPSAQVKGRGYERRNLRLPLTIEAALERMENCKPLEQYLGSKFISGYVAVKRAEHENFKRVISSWEREFLLLSV”, the “soluble on expression in E. coli” value is “not soluble”.
Consider “MARKIRKLRKAEVNYITIKATLEAEKKEDYLKLALLTEKFKRAVELSIRLQLKGVKKSEGVKEVSRLILNNWWYSDSAWDYAKMLRKGAERS”, for which the “soluble on expression in E. coli” value is given as “not soluble”.
Under “SNGSSVASTSPSVKCKEDQGLNGHEEKENPFAEYMWMENEEDFNRQVEEELQEQDFLDRCFQEMLDEEDQDWFIPARDLPQAVGHLQQQLNGLSVGDSHESEDILSKSNLNPDAKEFVPGVKY” stands “soluble”.
